Measured values as given in the Immune Epitope Database (IEDB).
pKd: −log10 of the molar value.

Key:
[1] = target: HLA-A*69:01; assay: IEDB peptide-MHC binding, purified MHC/direct/fluorescence; filed as Kd, often an IC50 or EC50 that approximates it; ≥ and ≤ were set here for values at or beyond the usual limits of such assays; conditions: source organism: Yellow fever virus
[2] = target: HLA-B*15:01; assay: as above
[3] = target: HLA-B*46:01; assay: as above
[4] = target: HLA-A*01:01; assay: IEDB peptide-MHC binding, purified MHC/competitive/radioactivity; filed as Kd, often an IC50 or EC50 that approximates it; ≥ and ≤ were set here for values at or beyond the usual limits of such assays
[5] = target: HLA-A*23:01; assay: as above
[6] = target: HLA-A*24:02; assay: as above
[7] = target: HLA-A*26:01; assay: as above
[8] = target: HLA-A*29:02; assay: as above
[9] = target: HLA-A*30:02; assay: as above
[10] = target: HLA-A*32:01; assay: as above
[11] = target: HLA-B*44:02; assay: as above
[12] = target: HLA-B*44:03; assay: as above
[13] = target: HLA-B*27:05; assay: IEDB peptide-MHC binding, purified MHC/direct/fluorescence; filed as Kd, often an IC50 or EC50 that approximates it; ≥ and ≤ were set here for values at or beyond the usual limits of such assays; conditions: source organism: Mammarenavirus juninense
[14] = target: HLA-B*07:02; assay: IEDB peptide-MHC binding, purified MHC/competitive/radioactivity; filed as Kd, often an IC50 or EC50 that approximates it; ≥ and ≤ were set here for values at or beyond the usual limits of such assays; conditions: source organism: Dengue virus 1 Brazil/97-11/1997
[15] = target: HLA-B*51:01; assay: as above; conditions: source organism: Dengue virus 1 Brazil/97-11/1997
[16] = source organism: Yellow fever virus
[17] = source organism: Mammarenavirus machupoense
[18] = source organism: SARS coronavirus Tor2
[19] = source organism: Dengue virus 3 Martinique/1243/1999
[20] = source organism: Dengue virus 2 Jamaica/1409/1983
[21] = source organism: Vaccinia virus WR
[22] = source organism: Yellow fever virus 1899/81

Sequence | pKd [4, 18] | pKd [5, 18] | pKd [6, 18] | pKd [7, 18] | pKd [8, 18] | pKd [9, 18] | further results
KMLDPRQGL | – | – | – | – | – | – | pKd [1]: ≤ 5.00; pKd [2, 16]: 6.09; pKd [3, 16]: ≤ 4.70
VGIPTHRHL | – | – | – | – | – | – | pKd [4, 17]: ≤ 4.16; pKd [5, 17]: 4.85; pKd [6, 17]: ≤ 4.39; pKd [7, 17]: ≤ 4.11; pKd [8, 17]: ≤ 4.10; pKd [9, 17]: 4.84
YSNRNRFLY | 8.54 | 5.24 | 5.52 | 5.83 | 9.23 | 9.34 | –
KTWGKAKIV | – | – | – | – | – | – | pKd [10, 19]: 5.90
IDATSTGNY | 5.43 | ≤ 4.11 | ≤ 4.13 | 5.98 | 6.35 | 5.07 | –
LCMLNNSLYY | – | – | – | – | – | – | pKd [4, 17]: 6.44; pKd [5, 17]: ≤ 4.39; pKd [6, 17]: ≤ 4.26; pKd [7, 17]: ≤ 4.16; pKd [8, 17]: 8.14; pKd [9, 17]: 6.74
ELSPRWYFY | ≤ 4.46 | 4.97 | 4.88 | 7.80 | 7.15 | 6.10 | –
FYAYLRKHF | ≤ 4.11 | ≤ 4.62 | ≤ 4.50 | ≤ 4.11 | ≤ 4.34 | ≤ 3.90 | –
PYNSVTDTI | ≤ 4.11 | 7.69 | 8.15 | ≤ 4.11 | 5.17 | ≤ 4.09 | –
GVFPVSIPI | – | – | – | – | – | – | pKd [10, 20]: 7.35
KLFNIAQRI | – | – | – | – | – | – | pKd [10, 21]: 8.80
VYMDAVFEY | – | – | – | – | – | – | pKd [2, 22]: 6.22; pKd [3, 22]: ≤ 4.70
EEHNSTWHY | – | – | – | – | – | – | pKd [11, 19]: 7.82; pKd [12, 19]: 7.17
TTWALCESI | – | – | – | – | – | – | pKd ([10]; source organism: Dengue virus 1 Brazil/97-11/1997): 6.53
RRGLSQFTQ | – | – | – | – | – | – | pKd [13]: ≤ 4.70
AMGKPVPYCY | 5.70 | ≤ 4.15 | ≤ 4.15 | ≤ 4.31 | 7.05 | 8.96 | –
EENVEVEIW | – | – | – | – | – | – | pKd [11, 20]: 7.35; pKd [12, 20]: 7.41
SLSAVSVHI | – | – | – | – | – | – | pKd [10, 21]: 7.47
TPQDNQLAYV | – | – | – | – | – | – | pKd [14]: 6.48; pKd [15]: 4.84
KTIVESCGNY | 6.62 | ≤ 4.15 | ≤ 4.15 | 5.87 | 6.07 | 8.77 | –
